From paper PMC2957469 come the findings set out here.

Assay [1] concerns the target JCV VP1 pentamer (amino acids 22-289) A126Q, His-tagged (JC polyomavirus (JCV), Mad-1 strain). The assay is described as follows: SEC. For orientation: In gel filtration, larger molecules generally elute earlier.
Assay [2] deals with JCV VP1 pentamer (amino acids 22-289) A126Y, His-tagged (JC polyomavirus (JCV), Mad-1 strain). The assay is described as follows: SEC.
The target in assay [3] is JCV VP1 pentamer (amino acids 22-289) L54Y, His-tagged (JC polyomavirus (JCV), Mad-1 strain). The assay can be described thus: SEC.
Assay [4] deals with JCV VP1 pentamer (amino acids 22-289) N123A, His-tagged (JC polyomavirus (JCV), Mad-1 strain). The assay is described as follows: SEC.
The target of assay [5] is JCV VP1 pentamer (amino acids 22-289) R265A, His-tagged (JC polyomavirus (JCV), Mad-1 strain). The assay can be described thus: SEC.
The target in assay [6] is JCV VP1 pentamer (amino acids 22-289) S266A/S268A, His-tagged (JC polyomavirus (JCV), Mad-1 strain). The assay can be described thus: SEC.
The target in assay [7] is JCV VP1 pentamer (amino acids 22-289) S266N/S268N, His-tagged (JC polyomavirus (JCV), Mad-1 strain). The assay is described as follows: SEC.
In assay [8] the target is JCV VP1 pentamer (amino acids 22-289, Mad-1 strain), His-tag removed, as crystallized (JC polyomavirus (JCV), Mad-1 strain). The assay is described as follows: crystal structure.
Assay [9] concerns the target JCV VP1 pentamer (amino acids 22-289, Mad-1 strain), His-tagged, wild type (JC polyomavirus (JCV), Mad-1 strain). The assay is described as follows: SEC.

Usually stoichiometry N stands for the number of molecules, sites or subunits per partner or assembly. As to “JCV VP1 pentamer (amino acids 22-289) A126Q, His-tagged (domain or fragment)”, the stoichiometry N in assay [1] was found to be 5.
Take “JCV VP1 pentamer (amino acids 22-289) A126Y, His-tagged (domain or fragment)”: the stoichiometry N in assay [2] worked out at 5.
Consider “JCV VP1 pentamer (amino acids 22-289) L54Y, His-tagged (domain or fragment)”, for which the stoichiometry N in assay [3] stood at 5.
In turn, “JCV VP1 pentamer (amino acids 22-289) N123A, His-tagged (domain or fragment)” registered a stoichiometry N in assay [4] of 5.
In [5], “JCV VP1 pentamer (amino acids 22-289) R265A, His-tagged (domain or fragment)” had a stoichiometry N of 5.
With “JCV VP1 pentamer (amino acids 22-289) S266A/S268A, His-tagged (domain or fragment)”, the stoichiometry N in assay [6] was found to be 5.
As to “JCV VP1 pentamer (amino acids 22-289) S266N/S268N, His-tagged (domain or fragment)”, in assay [7], the stoichiometry N is 5.
For “JCV VP1 pentamer (amino acids 22-289, Mad-1 strain), His-tag removed, as crystallized (domain or fragment)”, in assay [8], the stoichiometry N is 5.
Consider “JCV VP1 pentamer (amino acids 22-289, Mad-1 strain), His-tagged, wild type (domain or fragment)”, for which the stoichiometry N in assay [9] is 5.
